The values that follow are results of earlier work, collected in patent US20180296685A1, “TARGETED CONSTRUCTS AND FORMULATIONS THEREOF” (TARVEDA THERAPEUTICS, INC., priority 2017, published 2018).

The conditions of the data set: transthyretin, serum protein.

As to Transthyretin, the in vivo half-life result is on record as “around 48 h”.
